# Legend:
# [1] = target: endogenous ATF4 of HEK293T cells (UniProt P18848); assay: cell-based or functional assay
# [2] = target: full-length ATF4 (pCEP-ATF4) (UniProt P18848); assay: cell-based or functional assay
# full-length ATF4 (pCEP-ATF4), sequence (P18848 whole entry): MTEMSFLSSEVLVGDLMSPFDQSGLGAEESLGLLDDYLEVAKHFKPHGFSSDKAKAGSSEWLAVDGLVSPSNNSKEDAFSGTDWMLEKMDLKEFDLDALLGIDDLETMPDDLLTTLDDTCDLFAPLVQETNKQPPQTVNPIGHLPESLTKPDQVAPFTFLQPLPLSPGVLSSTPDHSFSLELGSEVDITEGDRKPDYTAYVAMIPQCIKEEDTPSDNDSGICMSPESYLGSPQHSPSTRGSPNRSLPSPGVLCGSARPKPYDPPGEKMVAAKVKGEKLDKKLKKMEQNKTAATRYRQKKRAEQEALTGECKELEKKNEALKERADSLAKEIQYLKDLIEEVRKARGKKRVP
# endogenous ATF4 of HEK293T cells, sequence (P18848 whole entry): as above
"reporter activity (pCRE-ATF4X2, HEK293T cells) after knock-down of NPHP6 with pTER-NPHP6, compared to empty vector [1] [%]","reporter activity (dual-luciferase reporter construct for ATF4, pCRE-ATF4×2, in HEK293T cells), compared to empty vector pCEP4F [2] [fold]","reporter activity (pCRE-ATF4×2, HEK293T cells) with either construct alone, compared to empty vector pCEP4F [2] [fold]",Substance
75.4,–,–,endogenous NPHP6 of HEK293 / HEK293T cells (from UniProt O15078 1-2479)
–,9.7,2,myc-tagged full-length human NPHP6 (pCJW206-Cep290) (from UniProt O15078 1-2479)
